Target: T1, αβγENaC (Rattus norvegicus, UniProt P37089+P37090+P37091, R138K/R205K/R231K)
T1 construct: expressed in transfected cells; host or cells: Xenopus laevis oocytes (cRNA injection)
T1 sequence (P37089 1-698 R205K/R231K): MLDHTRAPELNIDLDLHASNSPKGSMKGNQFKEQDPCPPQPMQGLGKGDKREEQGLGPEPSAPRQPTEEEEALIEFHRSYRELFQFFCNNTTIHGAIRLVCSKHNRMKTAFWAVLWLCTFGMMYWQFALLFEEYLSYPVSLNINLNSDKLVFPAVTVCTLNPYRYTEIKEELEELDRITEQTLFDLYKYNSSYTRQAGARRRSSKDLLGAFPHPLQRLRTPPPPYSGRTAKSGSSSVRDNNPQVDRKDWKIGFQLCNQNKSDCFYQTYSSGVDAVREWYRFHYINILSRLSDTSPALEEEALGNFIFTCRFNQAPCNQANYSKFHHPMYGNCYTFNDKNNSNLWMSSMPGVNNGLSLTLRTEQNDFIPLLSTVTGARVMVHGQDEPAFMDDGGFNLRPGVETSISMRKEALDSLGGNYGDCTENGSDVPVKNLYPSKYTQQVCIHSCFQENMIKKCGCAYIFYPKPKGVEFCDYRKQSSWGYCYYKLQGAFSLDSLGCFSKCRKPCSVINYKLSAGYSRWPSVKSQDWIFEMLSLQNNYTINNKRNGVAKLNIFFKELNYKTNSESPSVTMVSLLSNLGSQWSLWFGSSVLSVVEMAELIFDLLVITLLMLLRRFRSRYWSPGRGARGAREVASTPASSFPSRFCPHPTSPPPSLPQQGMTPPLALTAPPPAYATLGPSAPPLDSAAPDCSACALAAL
T1 sequence (P37090 1-638): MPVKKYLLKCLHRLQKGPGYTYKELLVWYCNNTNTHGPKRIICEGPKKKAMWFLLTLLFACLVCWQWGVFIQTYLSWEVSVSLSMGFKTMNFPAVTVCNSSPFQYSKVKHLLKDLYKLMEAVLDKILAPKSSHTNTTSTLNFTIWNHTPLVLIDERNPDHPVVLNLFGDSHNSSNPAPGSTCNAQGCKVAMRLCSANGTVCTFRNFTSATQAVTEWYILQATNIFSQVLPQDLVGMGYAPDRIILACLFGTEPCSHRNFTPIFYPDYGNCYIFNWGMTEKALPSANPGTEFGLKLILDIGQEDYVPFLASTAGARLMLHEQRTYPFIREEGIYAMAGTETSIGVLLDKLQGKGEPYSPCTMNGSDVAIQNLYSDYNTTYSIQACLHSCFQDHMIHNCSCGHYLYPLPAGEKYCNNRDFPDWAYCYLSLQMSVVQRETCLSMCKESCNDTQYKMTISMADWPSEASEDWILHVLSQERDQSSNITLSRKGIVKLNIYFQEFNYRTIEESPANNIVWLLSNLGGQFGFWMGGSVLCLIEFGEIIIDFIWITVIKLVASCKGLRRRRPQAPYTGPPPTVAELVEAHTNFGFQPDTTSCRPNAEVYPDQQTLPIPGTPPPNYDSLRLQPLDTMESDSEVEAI
T1 sequence (P37091 1-650 R138K): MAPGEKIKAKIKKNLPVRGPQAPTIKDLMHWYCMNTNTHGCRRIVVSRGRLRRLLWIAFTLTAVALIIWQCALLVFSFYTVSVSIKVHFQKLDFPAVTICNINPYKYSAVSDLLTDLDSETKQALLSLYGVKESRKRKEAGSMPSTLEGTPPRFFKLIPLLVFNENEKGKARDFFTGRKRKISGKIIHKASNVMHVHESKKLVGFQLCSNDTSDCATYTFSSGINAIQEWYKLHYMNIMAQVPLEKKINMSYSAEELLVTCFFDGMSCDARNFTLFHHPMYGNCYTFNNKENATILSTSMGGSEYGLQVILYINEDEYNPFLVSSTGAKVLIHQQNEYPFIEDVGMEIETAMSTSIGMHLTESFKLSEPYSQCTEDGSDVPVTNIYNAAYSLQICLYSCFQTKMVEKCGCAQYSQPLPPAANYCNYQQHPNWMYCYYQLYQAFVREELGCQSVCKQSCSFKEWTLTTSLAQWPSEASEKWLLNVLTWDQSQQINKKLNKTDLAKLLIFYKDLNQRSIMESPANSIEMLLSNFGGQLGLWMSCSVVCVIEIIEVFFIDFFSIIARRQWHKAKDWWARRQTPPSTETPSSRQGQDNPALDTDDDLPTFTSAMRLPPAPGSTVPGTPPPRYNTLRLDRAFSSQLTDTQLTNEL
Experiment: Amiloride-sensitive whole cell current, two electrode voltage clamp, Xenopus laevis oocytes expressing αβγENaC
Assay type: cell-based
Conditions: SPLUNC1 co-expressed

B1: SPLUNC1: human SPLUNC1 (SEQ ID NO:1), 256 amino acid secreted PLUNC family protein; rSPLUNC1 is the purified V5/6His-tagged recombinant form (protein, listed as Homo sapiens)
chain: MFQTGGLIVFYGLLAQTMAQFGGLPVPLDQTLPLNVNPALPLSPTGLAGSLTNALSNGLLSGGLLGILENLPLLDILKPGGGTSGGLLGGLLGKVTSVIPGLNNIIDIKVTDPQLLELGLVQSPDGHRLYVTIPLGIKLQVNTPLVGASLLRLAVKLDITAEILAVRDKQERIHLVLGDCTHSPGSLQISLLDGLGPLPIQGLLDSLTGILNKVLPELVQGNVCPLVNEVLRGLDITLVHDIVNMLIHGLQFVIKV
modifications: V5/6His tag in recombinant form
notes: rSPLUNC1 is the purified V5/6His-tagged recombinant form
B1 was tested, and the “current of furin-insensitive αR205,231K,β,γR138K ENaC mutant” value was “also inhibited”.

Source: patent US9127040B2, “Regulation of sodium channels by PLUNC proteins” (The University of North Carolina at Chapel Hill, priority 2011, dated 2015)
